± gives the uncertainty stated by the source.
Assay: self-splicing fitness, log relative to wild type (ln ratio); higher = more splicing; Tetrahymena group I intron in knt gene, E. coli kanamycin selection, DiMSum; sequences stand for … in CUCUCU…GGAGGGAAAAGUUAUCAGGCAUGCACCUGGUAGCUAGUCUUUAAACCAAUAGAUUGCAUCGGUUUAAAAGGCAAGACCGUCAAAUUGCGGGAAAGGGGUCAACAGCCGUUCAGUACCAAGUCUCAGGGGAAACUUUGAGAUGGCCUUGCAAAGGGUAUGGUAAUAAGCUGACGGACAUGGUCCUAACCACGCAGCCAAGUCCUAAGUCAACAGAUCUUCUGUUGAUAUGGAUGCAGUUCACAGACUAAAUGUCGGUCGGGGAAGAUGUAUUCUUCUCAUAAGAUAUAGUCGGACCUCUCCUUAAUGGGAGCUAGCGGAUGAAGUGAUGCAACACUGGAGCCGCUGGGAACUAAUUUGUAUGCGAAAGUAUAUUGAUUAGUUUUGGAGUACUCGUGGUCG
Method in brief: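 Library with all eight P1ex-region intron nucleotides randomised, intron inside the knt kanamycin-resistance gene on pET-22b(+), in E. coli BL21(DE3). Cells grew overnight at 37°C or 30°C on LB agar with or without 25 μg/mL kanamycin (plus 100 μg/mL carbenicillin, 50 μM IPTG, 0.2% rhamnose), in six replicate transformations. Pooled colonies were amplicon-sequenced on Illumina HiSeq 2500. DiMSum fitness is the error-weighted combination of wild-type-normalised replicate fold changes, kanamycin versus none.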

Sequence | self-splicing fitness (ln) (30 °C) | self-splicing fitness (ln) (37 °C)
UGUGAGCAAUAUUACGCUGU | -3.47 ± 0.18 | -2.66 ± 0.19
GGUUAGCAAUAUUACGAAUG | -0.2 ± 0.3 | -0.491 ± 0.33
UACUAGCAAUAUUACGAGCG | -0.191 ± 0.088 | 0.655 ± 0.11
ACGGAGCAAUAUUACGGAGA | – | -2.01 ± 0.46
UUAAAGCAAUAUUACGUCAC | -2.97 ± 0.16 | -1.76 ± 0.22
UAGGAGCAAUAUUACGAAUA | -1.13 ± 0.41 | –
GUCCAGCAAUAUUACGUACG | -1.58 ± 0.07 | -1.14 ± 0.1
GGAAAGCAAUAUUACGAAAU | -1.52 ± 0.3 | -1 ± 0.41
CUUAAGCAAUAUUACGUGGC | – | 0.00177 ± 0.26
CGAGAGCAAUAUUACGCACG | -3.55 ± 0.29 | -1.76 ± 0.3
GUCAAGCAAUAUUACGACAC | -0.691 ± 0.12 | -0.114 ± 0.14
UGUGAGCAAUAUUACGCAGG | -3.81 ± 0.42 | -1.39 ± 0.27
AGGUAGCAAUAUUACGGCAC | -0.781 ± 0.017 | -0.277 ± 0.035
GUCUAGCAAUAUUACGACAC | -0.746 ± 0.13 | -0.011 ± 0.11
CCCAAGCAAUAUUACGCUAC | -4.17 ± 0.39 | -3.04 ± 0.38
UCUCAGCAAUAUUACGCAUG | – | -1.04 ± 0.45
UUAGAGCAAUAUUACGGCGG | -0.922 ± 0.14 | 0.0643 ± 0.2
GAGAAGCAAUAUUACGCGGG | -2.86 ± 0.14 | -1.88 ± 0.14
AGAGAGCAAUAUUACGCGGC | -2.71 ± 0.26 | –
GAGAAGCAAUAUUACGCCCU | -0.493 ± 0.16 | 0.146 ± 0.18
GUGGAGCAAUAUUACGGCCU | -1.74 ± 0.19 | -0.55 ± 0.3
ACUAAGCAAUAUUACGUGCG | -0.891 ± 0.086 | -0.294 ± 0.098
ACAGAGCAAUAUUACGCAGU | – | -2.62 ± 0.4
AGCAAGCAAUAUUACGACCC | -0.234 ± 0.18 | -0.196 ± 0.25
UAAAAGCAAUAUUACGCGAG | -0.897 ± 0.075 | -0.186 ± 0.095

Sequence | self-splicing fitness (ln) (30 °C) | self-splicing fitness (ln) (37 °C)
CGGAAGCAAUAUUACGAGAU | – | -2.18 ± 0.33
UGCUAGCAAUAUUACGGAAU | -3.98 ± 0.39 | -2.97 ± 0.29
CUCGAGCAAUAUUACGGAAA | -2.9 ± 0.28 | -1.37 ± 0.16
UUUUAGCAAUAUUACGACAA | -0.409 ± 0.15 | -0.125 ± 0.17
GUAAAGCAAUAUUACGGCAU | -0.176 ± 0.067 | -0.287 ± 0.078
UGACAGCAAUAUUACGCGAU | -2.5 ± 0.15 | -1.46 ± 0.19
CAGAAGCAAUAUUACGGAGU | -3.56 ± 0.28 | -3.14 ± 0.4
ACCCAGCAAUAUUACGCCAA | -2.43 ± 0.15 | -2.03 ± 0.15
AGGUAGCAAUAUUACGUUCU | -0.768 ± 0.014 | -0.545 ± 0.033
GCUAAGCAAUAUUACGAAGU | -3.47 ± 0.17 | -3.01 ± 0.34
CUUAAGCAAUAUUACGGGGC | -3.68 ± 0.2 | -2.63 ± 0.21
CCUCAGCAAUAUUACGGGAG | -3.4 ± 0.14 | -2.42 ± 0.15
CUGAAGCAAUAUUACGACUU | -3.13 ± 0.35 | -1.75 ± 0.3
CGGAAGCAAUAUUACGGUGU | -3.77 ± 0.18 | -2.1 ± 0.12
GCAUAGCAAUAUUACGUAAU | -2.58 ± 0.1 | -0.793 ± 0.096
AAGGAGCAAUAUUACGAAAU | -2.26 ± 0.14 | -3 ± 0.29
CCACAGCAAUAUUACGAUAA | -3.11 ± 0.25 | -2.75 ± 0.32
AACGAGCAAUAUUACGGCAC | -2.99 ± 0.22 | -1.89 ± 0.29
AUACAGCAAUAUUACGCAGA | -1.49 ± 0.13 | -1.51 ± 0.1
GGGCAGCAAUAUUACGUCCA | -1.17 ± 0.23 | -1.01 ± 0.28
CGGCAGCAAUAUUACGAACA | -0.789 ± 0.096 | -0.204 ± 0.12
UGGAAGCAAUAUUACGAGUC | -2.78 ± 0.29 | -3.37 ± 0.33
UACCAGCAAUAUUACGAUAC | – | -2.39 ± 0.19
GAUUAGCAAUAUUACGCUCG | -1.11 ± 0.12 | -0.397 ± 0.15
GGGUAGCAAUAUUACGCCGU | -0.463 ± 0.2 | 0.576 ± 0.23

Sequence | self-splicing fitness (ln) (30 °C) | self-splicing fitness (ln) (37 °C)
ACGUAGCAAUAUUACGCGUU | – | -2.49 ± 0.24
UGUCAGCAAUAUUACGUAUC | -2.16 ± 0.2 | -1.68 ± 0.29
GCAAAGCAAUAUUACGAGAG | -2.7 ± 0.095 | -1.89 ± 0.12
CCGUAGCAAUAUUACGUUAU | -2.06 ± 0.12 | -2.35 ± 0.23
GCUGAGCAAUAUUACGGGUU | -3.5 ± 0.15 | -3.05 ± 0.13
GAAGAGCAAUAUUACGGUCC | -2.17 ± 0.26 | -2.32 ± 0.33
UCGAAGCAAUAUUACGGAGU | -3.99 ± 0.28 | -1.03 ± 0.15
UGUUAGCAAUAUUACGGCUC | -2.55 ± 0.22 | 0.0795 ± 0.15
GUGGAGCAAUAUUACGUAAU | -2.23 ± 0.13 | -0.812 ± 0.13
CCACAGCAAUAUUACGUUAU | -4.08 ± 0.15 | -2.66 ± 0.16
UGCAAGCAAUAUUACGACGG | -0.954 ± 0.074 | -0.946 ± 0.079
CUCCAGCAAUAUUACGUAUU | -4.45 ± 0.15 | -3.21 ± 0.18
UUGCAGCAAUAUUACGUUAG | -1.22 ± 0.053 | -0.899 ± 0.085
ACCCAGCAAUAUUACGUAAA | -0.691 ± 0.053 | -0.513 ± 0.075
GUGAAGCAAUAUUACGUCCG | -0.484 ± 0.15 | -0.103 ± 0.17
AUCCAGCAAUAUUACGCUCG | -1.75 ± 0.26 | -0.356 ± 0.22
UCGCAGCAAUAUUACGUCAG | -1.59 ± 0.12 | 0.604 ± 0.15
AUGAAGCAAUAUUACGCGUC | -4.16 ± 0.2 | -1.48 ± 0.13
CUGUAGCAAUAUUACGGGGC | -4.95 ± 0.36 | -2.14 ± 0.19
GUUGAGCAAUAUUACGGCAU | -1.32 ± 0.12 | -0.928 ± 0.17
GGCGAGCAAUAUUACGCCGU | -3.44 ± 0.47 | -1.28 ± 0.45
UAUUAGCAAUAUUACGUAGU | -2.56 ± 0.26 | -2.47 ± 0.35
AACUAGCAAUAUUACGGUCA | -0.313 ± 0.074 | 0.442 ± 0.093
UUCCAGCAAUAUUACGAUGU | -3.24 ± 0.12 | -2.22 ± 0.16
GAACAGCAAUAUUACGCUGG | -1.98 ± 0.28 | -1.3 ± 0.2

Sequence | self-splicing fitness (ln) (30 °C) | self-splicing fitness (ln) (37 °C)
UCUAAGCAAUAUUACGGGGG | -3.17 ± 0.22 | -0.678 ± 0.17
CAGCAGCAAUAUUACGAGUG | -1.54 ± 0.056 | -0.155 ± 0.074
ACCAAGCAAUAUUACGAAUC | -1.48 ± 0.18 | -1.4 ± 0.2
UAAUAGCAAUAUUACGCAAC | -2.64 ± 0.4 | -1.73 ± 0.37
GGAAAGCAAUAUUACGGAUG | -2.54 ± 0.17 | -2.18 ± 0.21
UGAUAGCAAUAUUACGUGCC | -2.61 ± 0.2 | -1.26 ± 0.2
GUUUAGCAAUAUUACGUAGC | -1.61 ± 0.2 | -0.831 ± 0.17
AGUUAGCAAUAUUACGCUGU | -2.3 ± 0.14 | -2.01 ± 0.21
GAUGAGCAAUAUUACGAGGU | -2.66 ± 0.32 | -1.99 ± 0.33
UAAGAGCAAUAUUACGGGAG | -3.33 ± 0.24 | -1.83 ± 0.19
UAGCAGCAAUAUUACGUUAC | – | -1.36 ± 0.22
AGUGAGCAAUAUUACGUUUA | -3.37 ± 0.45 | -2.04 ± 0.22
CUAGAGCAAUAUUACGCCUC | -3.5 ± 0.2 | -2.88 ± 0.34
GUCAAGCAAUAUUACGAUCC | -1.48 ± 0.18 | -0.693 ± 0.21
AGCUAGCAAUAUUACGCCCC | -0.339 ± 0.24 | -0.157 ± 0.34
UUACAGCAAUAUUACGUAUU | -2.89 ± 0.14 | -1.55 ± 0.12
UGCAAGCAAUAUUACGGUUG | -2.49 ± 0.11 | -1.88 ± 0.13
CUCCAGCAAUAUUACGACUA | -2.47 ± 0.21 | -2.53 ± 0.29
GAUGAGCAAUAUUACGUCCU | – | -1.84 ± 0.49
CUAGAGCAAUAUUACGGUGU | -4.1 ± 0.19 | -2.92 ± 0.27
UACGAGCAAUAUUACGGCUC | – | 0.0878 ± 0.5
UCGCAGCAAUAUUACGUAUU | -3.64 ± 0.15 | -1.85 ± 0.12
GUUCAGCAAUAUUACGAGAC | -1.99 ± 0.4 | -0.261 ± 0.22
UCGGAGCAAUAUUACGAACG | – | -1.54 ± 0.35

Source: the supplement of paper PMC7877785
